Values quoted from earlier work in PMC4449288.
pKd: −log10 of the molar value.

Molecular target: mAKAPβ (Homo sapiens) (UniProt Q13023)
Assay: SPR

Sequence of UniProt Q13023 (Q13023 whole entry): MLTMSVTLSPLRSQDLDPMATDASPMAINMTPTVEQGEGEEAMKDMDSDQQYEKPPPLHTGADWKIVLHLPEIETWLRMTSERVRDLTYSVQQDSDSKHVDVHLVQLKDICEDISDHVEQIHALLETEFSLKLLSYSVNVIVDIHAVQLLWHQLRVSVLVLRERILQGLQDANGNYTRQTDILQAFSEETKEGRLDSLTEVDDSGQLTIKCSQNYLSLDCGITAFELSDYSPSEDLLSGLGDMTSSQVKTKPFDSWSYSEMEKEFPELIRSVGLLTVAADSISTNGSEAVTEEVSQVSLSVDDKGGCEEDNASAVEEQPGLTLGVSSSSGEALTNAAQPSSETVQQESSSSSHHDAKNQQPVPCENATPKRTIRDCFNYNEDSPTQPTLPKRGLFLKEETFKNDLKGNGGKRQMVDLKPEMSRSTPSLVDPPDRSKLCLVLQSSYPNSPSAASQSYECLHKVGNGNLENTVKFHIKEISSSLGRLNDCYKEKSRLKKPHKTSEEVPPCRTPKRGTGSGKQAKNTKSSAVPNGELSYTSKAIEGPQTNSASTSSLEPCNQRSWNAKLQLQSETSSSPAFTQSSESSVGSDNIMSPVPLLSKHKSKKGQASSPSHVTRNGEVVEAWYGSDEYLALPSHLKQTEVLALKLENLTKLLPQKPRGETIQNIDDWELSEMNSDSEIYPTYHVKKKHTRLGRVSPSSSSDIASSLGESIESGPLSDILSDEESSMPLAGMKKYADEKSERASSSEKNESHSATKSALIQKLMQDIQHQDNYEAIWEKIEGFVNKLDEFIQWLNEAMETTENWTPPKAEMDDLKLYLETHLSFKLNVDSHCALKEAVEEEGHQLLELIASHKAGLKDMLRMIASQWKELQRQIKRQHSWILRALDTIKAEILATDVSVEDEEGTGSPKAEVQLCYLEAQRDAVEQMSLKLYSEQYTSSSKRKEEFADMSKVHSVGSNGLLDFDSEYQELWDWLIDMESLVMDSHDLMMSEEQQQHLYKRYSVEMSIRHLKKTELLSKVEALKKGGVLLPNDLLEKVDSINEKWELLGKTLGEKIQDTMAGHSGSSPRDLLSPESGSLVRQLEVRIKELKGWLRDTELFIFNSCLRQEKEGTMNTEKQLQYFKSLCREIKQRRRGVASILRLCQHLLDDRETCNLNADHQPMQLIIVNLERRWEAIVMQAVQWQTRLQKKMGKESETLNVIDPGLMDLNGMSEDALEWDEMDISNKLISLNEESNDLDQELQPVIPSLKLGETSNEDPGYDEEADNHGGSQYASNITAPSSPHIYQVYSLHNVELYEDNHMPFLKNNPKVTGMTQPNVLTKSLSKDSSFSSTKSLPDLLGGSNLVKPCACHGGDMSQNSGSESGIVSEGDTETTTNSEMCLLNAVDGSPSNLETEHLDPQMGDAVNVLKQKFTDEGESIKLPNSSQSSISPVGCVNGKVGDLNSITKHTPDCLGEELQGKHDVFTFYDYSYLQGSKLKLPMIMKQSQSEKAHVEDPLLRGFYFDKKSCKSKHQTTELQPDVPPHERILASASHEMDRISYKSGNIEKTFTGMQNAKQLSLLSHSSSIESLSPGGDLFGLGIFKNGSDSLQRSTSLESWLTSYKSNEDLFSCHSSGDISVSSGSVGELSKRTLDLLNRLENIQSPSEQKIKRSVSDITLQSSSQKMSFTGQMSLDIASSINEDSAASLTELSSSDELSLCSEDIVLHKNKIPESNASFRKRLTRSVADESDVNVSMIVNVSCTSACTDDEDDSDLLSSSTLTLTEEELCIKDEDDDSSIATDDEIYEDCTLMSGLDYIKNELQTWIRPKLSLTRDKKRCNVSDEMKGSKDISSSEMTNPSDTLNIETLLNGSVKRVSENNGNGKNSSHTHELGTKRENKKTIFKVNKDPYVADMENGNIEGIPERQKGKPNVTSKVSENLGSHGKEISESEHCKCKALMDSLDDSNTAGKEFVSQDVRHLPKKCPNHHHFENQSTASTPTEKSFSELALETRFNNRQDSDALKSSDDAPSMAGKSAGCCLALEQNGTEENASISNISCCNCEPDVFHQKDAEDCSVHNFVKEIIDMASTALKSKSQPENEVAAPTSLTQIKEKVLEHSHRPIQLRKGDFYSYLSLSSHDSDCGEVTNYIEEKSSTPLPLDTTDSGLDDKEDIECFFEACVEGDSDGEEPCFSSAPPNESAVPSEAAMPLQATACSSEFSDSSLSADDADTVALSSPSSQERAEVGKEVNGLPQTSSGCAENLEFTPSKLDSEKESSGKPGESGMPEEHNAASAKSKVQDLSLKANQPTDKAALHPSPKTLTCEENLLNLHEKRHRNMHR

pKd: 8.80
Substance: RSK3 (from UniProt Q15349)
